This note sets out measurements from patent publication US20240032514A1 (RENGENE BIOTECHNOLOGY, published 2024).

Experiment [1] concerns the target T1, human C-reactive protein (human, UniProt P02741 19-224).
T1 construct: also called CRP; antigen CRP
T1 sequence (looked up): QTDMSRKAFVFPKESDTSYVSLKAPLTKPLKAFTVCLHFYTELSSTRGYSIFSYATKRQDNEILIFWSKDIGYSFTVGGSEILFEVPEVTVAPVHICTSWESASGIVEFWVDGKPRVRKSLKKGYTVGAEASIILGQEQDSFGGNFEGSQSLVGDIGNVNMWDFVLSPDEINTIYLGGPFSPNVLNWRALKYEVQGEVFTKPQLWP
Description: ELISA, CRP coated at 2 µg/mL. Background: In an ELISA, binding on a coated surface is turned into a signal by an enzyme label.

Experiment [2] addresses T1, human C-reactive protein. Description: BLI (FORTEBIO-OCTET), antibody at 10 µg/mL, CRP at 200-3.13 nM. (BLI is a label-free optical method that tracks binding on a fibre tip over time.)
The next experiment has as its target T2, BSA (UniProt P02769 25-607).
T2 construct: Control protein coated at 2 µg/mL; also called unrelated protein BSA
As to the kind of experiment: ELISA, protein coated at 2 µg/mL, antibody in gradient dilution.

The next experiment addresses T3, OVA (UniProt P01012 2-386).
T3 construct: Control protein coated at 2 µg/mL; also called unrelated protein OVA
T3 sequence (looked up): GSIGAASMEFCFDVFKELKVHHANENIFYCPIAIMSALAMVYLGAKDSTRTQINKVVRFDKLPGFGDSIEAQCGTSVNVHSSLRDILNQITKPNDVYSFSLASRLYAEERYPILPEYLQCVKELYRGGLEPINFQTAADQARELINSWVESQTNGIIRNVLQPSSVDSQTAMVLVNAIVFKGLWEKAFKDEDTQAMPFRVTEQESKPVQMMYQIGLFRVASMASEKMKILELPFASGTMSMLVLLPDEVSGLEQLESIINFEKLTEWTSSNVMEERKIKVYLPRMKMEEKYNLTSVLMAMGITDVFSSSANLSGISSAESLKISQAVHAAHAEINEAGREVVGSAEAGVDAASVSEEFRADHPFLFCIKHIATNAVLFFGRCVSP
The experiment is described as above.

In experiment [3] the target is T1, human C-reactive protein.

Changes are numbered by the printed parent chain. Names and notes keep the numbering of the source. Like-named read-outs stand apart in the source and are kept apart here.

T2 sequence (P02769 25-607 limits assumed): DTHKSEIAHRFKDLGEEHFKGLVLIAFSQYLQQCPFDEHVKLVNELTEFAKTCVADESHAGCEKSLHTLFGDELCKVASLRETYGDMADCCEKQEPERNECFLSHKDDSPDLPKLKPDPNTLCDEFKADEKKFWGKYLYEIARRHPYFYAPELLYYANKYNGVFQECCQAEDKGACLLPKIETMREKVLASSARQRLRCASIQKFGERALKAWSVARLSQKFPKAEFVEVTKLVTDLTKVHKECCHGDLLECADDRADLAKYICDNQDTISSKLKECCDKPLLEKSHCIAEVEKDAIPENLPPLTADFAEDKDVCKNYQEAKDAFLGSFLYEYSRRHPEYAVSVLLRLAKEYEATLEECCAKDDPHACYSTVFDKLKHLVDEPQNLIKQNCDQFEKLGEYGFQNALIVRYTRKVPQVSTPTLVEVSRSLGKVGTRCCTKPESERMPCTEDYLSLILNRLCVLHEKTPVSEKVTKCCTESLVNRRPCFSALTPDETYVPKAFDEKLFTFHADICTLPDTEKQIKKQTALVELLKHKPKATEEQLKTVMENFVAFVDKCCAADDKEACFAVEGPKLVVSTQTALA

B1: D4-12 heavy chain antibody variable region (VHH)
VHH: EVQLQQSGPELVKPGASVKISCKASGYMFSDYYMNWVKQSHGKSLEWIGNVDPNTDNTIYNQNFKDKATLTVDRSSRTAYMELHSLTSEDSAVYYCARSRFYDPWFAYWGQGTLVTVSA
Turning to B1, in the experiment with human C-reactive protein [1], the binding result is “binds”.

B2: D5S-12 heavy chain antibody (VHH)
VHH: EVKLLESGGGLVKPGGSLKLSCAASGFTFSDYGMSWIRQTPDKRLEWVATISSGNTYTYYSKSVKGRFTISRDNAKNTLYLQMSSLKSEDTAIYYCSRHTSDYYPLSQGTLVTVSA
A word on the Kd: it is the concentration at which binding is half-saturated. A higher Kd goes with weaker binding. As usually defined, the koff is the first-order rate constant of dissociation. A lower koff goes with a long-lived complex. A word on the kon: it is the second-order rate constant of association. High values mean fast association, low ones slow association. In the case of B2, in the experiment with human C-reactive protein [2], the Kd was 0.987 nM, the koff is 8.44e-05 s⁻¹ and the kon turned out to be 85500 M⁻¹ s⁻¹. Moreover, the binding result with BSA is listed as “no binding”. Further, the binding result in the experiment with OVA is recorded as “no binding”.

B3: G3-35 (VHH)
VHH: EVQLQQSGPELVKPGASVRMSCKASGYTFTDYNIHWVKQSHGESLEWIGFVNPDNGDTYYYKNFKGKATLTFNRSSSTAYMDLRSLTSEDSAVYYCARGTTVEKDYWGQGTTLTVSS
On to B3, for which the binding result in the experiment with human C-reactive protein [3] is listed as “binds”.

B4: G3-71 (VHH)
VHH: B3 VHH with V51I, K65R, F72L, R74K, A92G, T112I
Regarding B4, the binding result with human C-reactive protein [3] was “binds”.

B5: G3-23 (VHH)
VHH: B3 VHH with L11V, V12L, A16T, H41R, N55T, T112I
For the molecule B5, the binding result in the experiment with human C-reactive protein [3] was “binds”.
